# B1: Wnt1 (protein, UniProt P04628 28-370, looked up)
# Proto-oncogene Wnt-1: ANSSGRWWGIVNVASSTNLLTDSKSLQLVLEPSLQLLSRKQRRLIRQNPGILHSVSGGLQSAVRECKWQFRNRRWNCPTAPGPHLFGKIVNRGCRETAFIFAITSAGVTHSVARSCSEGSIESCTCDYRRRGPGGPDWHWGGCSDNIDFGRLFGREFVDSGEKGRDLRFLMNLHNNEAGRTTVFSEMRQECKCHGMSGSCTVRTCWMRLPTLRAVGDVLRDRFDGASRVLYGNRGSNRASRAELLRLEPEDPAHKPPSPHDLVYFEKSPNFCTYSGRLGTAGTAGRACNSSSPALDGCELLCCGRGHRTRTQRVTERCNCTFHWCCHVSCRNCTHTRVLHECL
# Tested on: six V600E BRAF melanoma cell lines
# Experiment: Screening of recombinant RTK ligands for ability to confer resistance to BRAFi (PLX4720) or MEKi (PD184352) (Table 4)
# Assay type: cell-based, human
# Set-up: ability of recombinant RTK ligand to confer resistance / ability of recombinant RTK ligand to confer resistance (screening value): scale not given here
# Method: HGF is the only one that can substantially confer drug resistance to the cell lines.
# The complexity of the tumor microenvironment is much greater than an in vitro co-culture system. Therefore, the inventors explored whether the activation of other RTKs could result in a similar resistance as that observed with the activation of MET. To this end, six V600E BRAF melanoma cell lines were tested for their resistance to either BRAFi (PLX4720) or MEKi (PD184352) after the addition of 22 RTK ligands that have the potential of activating almost all known RTKs. […] The activation of a selected subset of these RTKs was confirmed by western blotting and by high throughput tyrosine kinase phosphorylation profiling.
molecule,measurement,setting,value
B1,ability of recombinant RTK ligand to confer resistance (screening value),"A2058, PD184352 - 1 uM, ligand 0.4 ng/ml",1.04
same,ability of recombinant RTK ligand to confer resistance (screening value),"A2058, PD184352 - 1 uM, ligand 1.6 ng/ml",0.99
same,ability of recombinant RTK ligand to confer resistance (screening value),"A2058, PD184352 - 1 uM, ligand 6.25 ng/ml",0.86
same,ability of recombinant RTK ligand to confer resistance (screening value),"A2058, PD184352 - 1 uM, ligand 25 ng/ml",0.98
same,ability of recombinant RTK ligand to confer resistance (screening value),"A2058, PD184352 - 1 uM, ligand 100 ng/ml",1.04
same,ability of recombinant RTK ligand to confer resistance (screening value),"A2058, PLX4720 - 2 uM, ligand 0.4 ng/ml",1.04
same,ability of recombinant RTK ligand to confer resistance (screening value),"A2058, PLX4720 - 2 uM, ligand 1.6 ng/ml",1.00
same,ability of recombinant RTK ligand to confer resistance (screening value),"A2058, PLX4720 - 2 uM, ligand 6.25 ng/ml",1.01
same,ability of recombinant RTK ligand to confer resistance (screening value),"A2058, PLX4720 - 2 uM, ligand 25 ng/ml",0.98
same,ability of recombinant RTK ligand to confer resistance (screening value),"A2058, PLX4720 - 2 uM, ligand 100 ng/ml",1.07
same,ability of recombinant RTK ligand to confer resistance (screening value),"C32, PD184352 - 1 uM, ligand 0.4 ng/ml",1.06
same,ability of recombinant RTK ligand to confer resistance (screening value),"C32, PD184352 - 1 uM, ligand 1.6 ng/ml",0.96
same,ability of recombinant RTK ligand to confer resistance (screening value),"C32, PD184352 - 1 uM, ligand 6.25 ng/ml",1.11
same,ability of recombinant RTK ligand to confer resistance (screening value),"C32, PD184352 - 1 uM, ligand 25 ng/ml",1.02
same,ability of recombinant RTK ligand to confer resistance (screening value),"C32, PD184352 - 1 uM, ligand 100 ng/ml",1.05
same,ability of recombinant RTK ligand to confer resistance (screening value),"C32, PLX4720 - 2 uM, ligand 0.4 ng/ml",1.13
same,ability of recombinant RTK ligand to confer resistance (screening value),"C32, PLX4720 - 2 uM, ligand 1.6 ng/ml",1.00
same,ability of recombinant RTK ligand to confer resistance (screening value),"C32, PLX4720 - 2 uM, ligand 6.25 ng/ml",1.03
same,ability of recombinant RTK ligand to confer resistance (screening value),"C32, PLX4720 - 2 uM, ligand 25 ng/ml",1.01
same,ability of recombinant RTK ligand to confer resistance (screening value),"C32, PLX4720 - 2 uM, ligand 100 ng/ml",0.95
same,ability of recombinant RTK ligand to confer resistance (screening value),"Colo 829, PD184352 - 1 uM, ligand 0.4 ng/ml",0.94
same,ability of recombinant RTK ligand to confer resistance (screening value),"Colo 829, PD184352 - 1 uM, ligand 1.6 ng/ml",0.93
same,ability of recombinant RTK ligand to confer resistance (screening value),"Colo 829, PD184352 - 1 uM, ligand 6.25 ng/ml",0.91
same,ability of recombinant RTK ligand to confer resistance (screening value),"Colo 829, PD184352 - 1 uM, ligand 25 ng/ml",0.85
same,ability of recombinant RTK ligand to confer resistance (screening value),"Colo 829, PD184352 - 1 uM, ligand 100 ng/ml",0.89
same,ability of recombinant RTK ligand to confer resistance (screening value),"Colo 829, PLX4720 - 2 uM, ligand 0.4 ng/ml",0.94
same,ability of recombinant RTK ligand to confer resistance (screening value),"Colo 829, PLX4720 - 2 uM, ligand 1.6 ng/ml",0.92
same,ability of recombinant RTK ligand to confer resistance (screening value),"Colo 829, PLX4720 - 2 uM, ligand 6.25 ng/ml",0.93
same,ability of recombinant RTK ligand to confer resistance (screening value),"Colo 829, PLX4720 - 2 uM, ligand 25 ng/ml",0.06
same,ability of recombinant RTK ligand to confer resistance (screening value),"Colo 829, PLX4720 - 2 uM, ligand 100 ng/ml",0.93
same,ability of recombinant RTK ligand to confer resistance (screening value),"G-361, PD184352 - 1 uM, ligand 0.4 ng/ml",0.99
same,ability of recombinant RTK ligand to confer resistance (screening value),"G-361, PD184352 - 1 uM, ligand 1.6 ng/ml",1.00
same,ability of recombinant RTK ligand to confer resistance (screening value),"G-361, PD184352 - 1 uM, ligand 6.25 ng/ml",0.93
same,ability of recombinant RTK ligand to confer resistance (screening value),"G-361, PD184352 - 1 uM, ligand 25 ng/ml",0.96
same,ability of recombinant RTK ligand to confer resistance (screening value),"G-361, PD184352 - 1 uM, ligand 100 ng/ml",0.93
same,ability of recombinant RTK ligand to confer resistance (screening value),"G-361, PLX4720 - 2 uM, ligand 0.4 ng/ml",0.94
same,ability of recombinant RTK ligand to confer resistance (screening value),"G-361, PLX4720 - 2 uM, ligand 1.6 ng/ml",0.97
same,ability of recombinant RTK ligand to confer resistance (screening value),"G-361, PLX4720 - 2 uM, ligand 6.25 ng/ml",1.01
same,ability of recombinant RTK ligand to confer resistance (screening value),"G-361, PLX4720 - 2 uM, ligand 25 ng/ml",0.97
same,ability of recombinant RTK ligand to confer resistance (screening value),"G-361, PLX4720 - 2 uM, ligand 100 ng/ml",0.98
same,ability of recombinant RTK ligand to confer resistance (screening value),"SK-MEL-5, PD184352 - 1 uM, ligand 0.4 ng/ml",0.02
same,ability of recombinant RTK ligand to confer resistance (screening value),"SK-MEL-5, PD184352 - 1 uM, ligand 1.6 ng/ml",0.91
same,ability of recombinant RTK ligand to confer resistance (screening value),"SK-MEL-5, PD184352 - 1 uM, ligand 6.25 ng/ml",1.06
same,ability of recombinant RTK ligand to confer resistance (screening value),"SK-MEL-5, PD184352 - 1 uM, ligand 25 ng/ml",1.02
same,ability of recombinant RTK ligand to confer resistance (screening value),"SK-MEL-5, PD184352 - 1 uM, ligand 100 ng/ml",1.14
same,ability of recombinant RTK ligand to confer resistance (screening value),"SK-MEL-5, PLX4720 - 2 uM, ligand 0.4 ng/ml",0.93
same,ability of recombinant RTK ligand to confer resistance (screening value),"SK-MEL-5, PLX4720 - 2 uM, ligand 1.6 ng/ml",0.90
same,ability of recombinant RTK ligand to confer resistance (screening value),"SK-MEL-5, PLX4720 - 2 uM, ligand 6.25 ng/ml",1.01
same,ability of recombinant RTK ligand to confer resistance (screening value),"SK-MEL-5, PLX4720 - 2 uM, ligand 25 ng/ml",0.97
same,ability of recombinant RTK ligand to confer resistance (screening value),"SK-MEL-5, PLX4720 - 2 uM, ligand 100 ng/ml",1.01
same,ability of recombinant RTK ligand to confer resistance (screening value),"SK-MEL-28, PD184352 - 1 uM, ligand 0.4 ng/ml",0.99
same,ability of recombinant RTK ligand to confer resistance (screening value),"SK-MEL-28, PD184352 - 1 uM, ligand 1.6 ng/ml",1.18
same,ability of recombinant RTK ligand to confer resistance (screening value),"SK-MEL-28, PD184352 - 1 uM, ligand 6.25 ng/ml",0.95
same,ability of recombinant RTK ligand to confer resistance (screening value),"SK-MEL-28, PD184352 - 1 uM, ligand 25 ng/ml",1.18
same,ability of recombinant RTK ligand to confer resistance (screening value),"SK-MEL-28, PD184352 - 1 uM, ligand 100 ng/ml",1.20
same,ability of recombinant RTK ligand to confer resistance (screening value),"SK-MEL-28, PLX4720 - 2 uM, ligand 0.4 ng/ml",1.02
same,ability of recombinant RTK ligand to confer resistance (screening value),"SK-MEL-28, PLX4720 - 2 uM, ligand 1.6 ng/ml",1.25
same,ability of recombinant RTK ligand to confer resistance (screening value),"SK-MEL-28, PLX4720 - 2 uM, ligand 6.25 ng/ml",0.99
same,ability of recombinant RTK ligand to confer resistance (screening value),"SK-MEL-28, PLX4720 - 2 uM, ligand 25 ng/ml",1.15
same,ability of recombinant RTK ligand to confer resistance (screening value),"SK-MEL-28, PLX4720 - 2 uM, ligand 100 ng/ml",1.25

# Reference: patent US20140348819A1, “Methods of Treating Cancer” (Dana-Farber Cancer Institute, Inc., priority 2011, published 2014)
